Assay results taken from US20030119169.

How the values were obtained:
[1] = target: in vitro translated GST control [GST: P08515]
YVADamc = target: T1, YVADamc
T1 chain: YVAD

[2] = target: T2, tetrapeptide substrate DEVD-AMC
T2 chain: DEVD

[3] = target: T3, in vitro translated GST-Mch3α2 precursor
T3 sequence (P55210 whole entry, looked up): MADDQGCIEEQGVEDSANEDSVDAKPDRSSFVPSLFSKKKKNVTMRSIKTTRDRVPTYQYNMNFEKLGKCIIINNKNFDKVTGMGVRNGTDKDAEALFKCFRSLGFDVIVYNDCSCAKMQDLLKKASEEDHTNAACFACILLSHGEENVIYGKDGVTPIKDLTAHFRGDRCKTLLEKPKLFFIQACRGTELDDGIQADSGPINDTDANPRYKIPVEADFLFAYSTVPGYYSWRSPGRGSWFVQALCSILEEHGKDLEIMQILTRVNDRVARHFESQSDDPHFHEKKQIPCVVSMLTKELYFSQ

[4] = target: T4, in vitro translated GST-CPP32 precursor, P42574
T4 chain: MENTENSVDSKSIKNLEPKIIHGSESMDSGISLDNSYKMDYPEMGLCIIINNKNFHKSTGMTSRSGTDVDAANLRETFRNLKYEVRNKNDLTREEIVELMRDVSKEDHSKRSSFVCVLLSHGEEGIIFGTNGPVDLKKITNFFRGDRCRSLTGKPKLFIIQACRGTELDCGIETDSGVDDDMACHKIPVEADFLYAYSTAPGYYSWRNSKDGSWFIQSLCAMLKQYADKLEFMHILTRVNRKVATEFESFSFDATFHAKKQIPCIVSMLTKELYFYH

in vitro translated GST control [GST: P08515], sequence (P08515 whole entry): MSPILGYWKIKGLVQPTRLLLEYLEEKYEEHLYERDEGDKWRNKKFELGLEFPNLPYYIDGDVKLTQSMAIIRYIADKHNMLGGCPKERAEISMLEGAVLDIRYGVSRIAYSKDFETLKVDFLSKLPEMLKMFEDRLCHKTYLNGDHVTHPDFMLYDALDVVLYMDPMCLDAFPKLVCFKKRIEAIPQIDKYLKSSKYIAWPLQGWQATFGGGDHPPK

B1: CPP32, bacterially expressed recombinant active enzyme (protein)
chain: SGISLDNSYKMDYPEMGLCIIINNKNFHKSTGMTSRSGTDVDAANLRETFRNLKYEVRNKNDLTREEIVELMRDVSKEDHSKRSSFVCVLLSHGEEGIIFGTNGPVDLKKITNFFRGDRCRSLTGKPKLFIIQACRGTELDCGIETDSGVDDDMACHKIPVEADFLYAYSTAPGYYSWRNSKDGSWFIQSLCAMLKQYADKLEFMHILTRVNRKVATEFESFSFDATFHAKKQIPCIVSMLTKELYFYH
cleavage of 35S-labelled in vitro translated protein, SDS-PAGE and autoradiography [1]: No cleavage was observed when CPP32 was incubated with an in vitro translated GST control
Km (YVADamc, µM) (YVADamc): > 500 µM
kcat/Km (YVADamc, mM^-1 s^-1) (YVADamc): 67 M⁻¹ s⁻¹
kcat/Km (DEVDamc, mM^-1s^-1) [2]: 1600 mM⁻¹ s⁻¹
cleavage of 35S-labelled in vitro translated precursor, SDS-PAGE and autoradiography [3]: incubation of CPP32 with the in vitro translated GST-Mch3α generated a GST-prodomain cleavage product of molecular mass 32 kDa
cleavage of resin-immobilized 35S-labelled precursor, soluble products on gradient SDS gel [3]: CPP32 was observed to efficiently cleave the GST-Mch3α precursor
cleavage of 35S-labelled in vitro translated precursor, SDS-PAGE and autoradiography [4]: CPP32 showed a very weak activity towards its precursor and generated a faint GST-prodomain band of 30 kDa size

B2: Mch3α, bacterially expressed recombinant active enzyme (protein)
chain: AKPDRSSFVPSLFSKKKKNVTMRSIKTTRDRVPTYQYNMNFEKLGKCIIINNKNFDKVTGMGVRNGTDKDAEALFKCFRSLGFDVIVYNDCSCAKMQDLLKKASEEDHTNAACFACILLSHGEENVIYGKDGVTPIKDLTAHFRGDRCKTLLEKPKLFFIQACRGTELDDGIQADSGPINDTDANPRYKIPVEADFLFAYSTVPGYYSWRSPGRGSWFVQALCSILEEHGKDLEIMQILTRVNDRVARHFESQSDDPHFHEKKQIPCVVSMLTKELYFSQ
Km (DEVDamc, µM) [2]: 51 µM
kcat/Km (DEVDamc, mM^-1s^-1) [2]: 11 mM⁻¹ s⁻¹
cleavage of 35S-labelled in vitro translated precursor, SDS-PAGE and autoradiography [3]: Mch3α exhibited significantly less activity than CPP32 towards the in vitro translated GST-Mch3α, a similar cleavage product was observed
cleavage of 35S-labelled in vitro translated precursor, SDS-PAGE and autoradiography [4]: No cleavage was observed in the buffer control or the Mch3α reaction
